Assay: soluble on expression in E. coli; label from the status in PepcDB or PDB records

Sequence: MSLERKKYNFNSEWRLQIGDFPEAKQSQFDDSRWKAVTLPHAFNEDEAFKVSIEQLTDTVVWYRKHFRIPASGKKQKVFIEFEGVRQAGDFYLNGQYLGKHENGVMAAGFDLTPYIKEGDNVLAVRTDNDWMYREKSTNSKFQWNDRNFNANYGGLPKNVFLYVTDEVYQTLPLYSNLKTTGVYIYAKDIDVKGRTATIHAESEVKNDSREPRQFSYQVVLLDADGKQVKSFEGEKVTLQGGETRVVKAASKVNNLHFWSWGYGYLYTVQTILKDNKNQVFDEVSTRTGFRKTRFAEGKIWLNDRVIQMKGYAQRTSNEWPAVGLSVPAWLSDYSNGLVVKGNGNLVRWMHVTPWKQDVESCDRVGLIQAMPAGDSEKDRTGRQWDQRTELMRDAIIYNRNNPSILFYECGNKGISREHMIEMKAIRDQYDPFGGRAIGSREMLDIREAEYGGEMLYINKSEHHPMWATEYCRDEGLRKYWDEYSYPFHKEGDGPLHRNQPATDYNHNQDMLAIAMIRCWYDYWRERPGTGRRVSSGGAKIIFSDTNTHHRGEENYRRSGVTDPMRIEKDAFFAHQVMWNGWVDTEEDNTYIIGHWNYPANTVKPVYVVSTGEEVELFLNSQSLGKGKREYNFLFTFDNVAFKAGKLEAVSYNKAGKEISRYAVSTVGEPAGLKLTTIQNPEGFHADGADLALIQVEVVDKDGKRCPLDNRTIQFDLKGNAEWRGGIAQGKDNYILNTSLPVECGINRALIRSTTQAGKITLTAKAEGLPSATITLETLPVKVSNGLSTYLPQMTLKGNLDKGKTPLTPSYKDTKRDIRIVSAKAGANNETVNQSFDDNERSEWMNDGKLSTAWITYTLEKEAAIDDICIKLNGWRSRSYPLEVFAGNTMIWSGDTNKSLGYVHLNVEKPVRSKQITIRLKGNTSDQDAFGQITEVAAKAANDMELEAKANKNNANLRIIEIEFLEAIKEGHHHHHH
- soluble on expression in E. coli: soluble

Sequence: MKKKNVVVFGGGTGLSVLLRGLKTFPVSITAIVTVADDGGSSGRLRKELDIPPPGDVRNVLVALSEVEPLLEQLFQHRFENGNGLSGHSLGNLLLAGMTSITGDFARGISEMSKVLNVRGKVLPASNRSIILHGEMEDGTIVTGESSIPKAGKKIKRVFLTPKDTKPLREGLEAIRKADVIVIGPGSLYTSVLPNLLVPGICEAIKQSTARKVYICNVMTQNGETDGYTASDHLQAIMDHCGVGIVDDILVHGEPISDTVKAKYAKEKAEPVIVDEHKLKALGVGTISDYFVLEQDDVLRHNASKVSEAILEGKPRTSSSIQAAALEHHHHHH
- soluble on expression in E. coli: soluble

Sequence: AIAASALEQFVNNVRQLSAQGQMTQLCELINKSGELLAKNLSHLDTVLGALDIQEHSLGVLAVLFVKFSMPNIPDFETLFSQVQLFISTCNGEHIRYATDTFAGLCHQLTNALVERKQPLRGISILKQAIDKMQMNTNQLTSVHADLCQLCLLAKCFKPAVPFLELDMMDICKENGAYDAKHFLCYYYYGGMIYTGLKNFERALYFFEQAITTPAMAVSHIMLEAYKKYILVSLILHGKVQQLPKYTSQIVGRFIKPLSNAYHELAQIYATNNPAELRALVNKHSETFTRDNNSGLVKQCLSSLYKKNIQRLTKTFLTLSLQDMASRVQLSGPQEAEKYVLHMIEDGEIYASINQKDGMVCFHDNPEKYNNPAMLHKIDQEML
- soluble on expression in E. coli: soluble

Sequence: HRTRIEDESIHKLVLDAHRCIHQHLDVLHQQLHQHCEECDLSNIDDAGLEQRLNEWRDEDDSSARMVLQQLHLIYRMLPELHSLASKFAVRVN
- soluble on expression in E. coli: not soluble

Sequence: MGSDKIHHHHHHMPGKAKGRSLTAAQFNLRSDRLIAGKALRNVLPRTEQASWQPAQDRRDPIAILEDSNQGRVPELIPIRYGRMLRSPFTFLRGSAAIMAYDLATTPNTGIHVQACGDCHLLNFGLFATPERNLVFDINDFDETHPAPWEWDLKRLAVSFVIAARNNQVVDQEAESIAVSCTRSYREHLRNYSRMSPLEVWYARLEMKEIIEMAPTEKIRKRREEFAERAQKRIAEHLFPKIVTLKEGKHQFVDQPPILFHSNDPTLRNRVINGLQAYRKSLPDERRVLFDRYRLEDYATKVVGIGSVGTHCSIALFFSEENHPLILQVKEARQSVLEPYTQTNCYENQGQRVVVGQRLMQSSSDIFLGWARSDLGRDFYVRQLRDMKFSLPIDGMQAERFHRYAEFCGWALARAHAKAGDAATISGYLGKADAFDEAIAKFAVAYADQTEQDYTALVQAVASGRIEAIVEEDL
- soluble on expression in E. coli: not soluble

Sequence: MDSMDHRIERLEYYIQLLVKTVDMDRYPFYALLIDKGLSKEEGEAVMRICDELSEELATQKAQGFVTFDKLLALFAGQLNEKLDVHETIFALYEQGLYQELMEVFIDIMKHFD
- soluble on expression in E. coli: soluble

Sequence: MGSDKIHHHHHHMMKILFIYRHPSMGFSIGKVFRPIEEEMKKYAEVDSIYMPTSQYSLNSIWQNIKTTRKAINSKKYDIVHITGTEHYLIPFLLGEKVVVTVHDLGHYFDIHGLKKILFWIMQIFSLKFAKAITCISNFTVQELKKTISIKNNKISVIFNEVDKNFSFKEKEFNKDYPVILHIGTRPHKNLSRTIKALNGIKCKLRIIGEITNKELDLLQKYKTDYSFASNLSDNDLLKEYQNADIINFPSCHEGFGMPIIEGQAVGRIVVTSNIEPMISVANNGAAICDPYNIESIRNTYIRVINDFQYRNDIILKGIDNVKKYSIETVAKQYFELYKTL
- soluble on expression in E. coli: not soluble

Sequence: MNGESDCATCTISGAKLGNALGAIWTFVHTMEQGDVVLVRHGAWLSIGIIGPYRYVKHLDNDIYGFCHQRSVEWKIINENVRLYNEKVHETLRHPGVVTKSKYTVHELQLGIEW
- soluble on expression in E. coli: not soluble

Sequence: MNKNKPFIVVIVGPTASGKTELSIELAKRINGEIISGDSMQVYKHMNIGTAKVTPEEMDGIPHHLIDILNPDDTFSAYEFKRLAEDLITDITNRGKVPIIAGGTGLYIQSLIYNYELEDETVTPAQLSIVKQKLSALEHLDNQQLHDYLAQFDAVSAENIHPNNRQRVLRAIEYYLKTKKLLSNRKKVQQFTENYDTLLLGIEMSRKTLYSRINKRVDIMLDHGLFREVQQLVEQGYESCQSMQAIGYKELIPVINGQMIYEDAVNDLKQHSRQYAKRQMTWFKNKMSVHWLDKENMSLQMMLDEITTQIKLEHHHHHH
- soluble on expression in E. coli: soluble

Sequence: DAPLPHLRFALASCANWEAGFFAAYGDIARRADAGELEMLIFLGDYIYEYATGMFAGKDGVVRPHQPLHETITLEHYRTRYGHYRSDNHLQAAHAALPWIVMWDDHESANNSNREGAQNHSADEGSWVDRQNAARQVFLEWMPIRQEDTLYRSFTFGDLATLSLLDLRSFRDPAPSQQQWLEGQRADTMMGSQQFEWLKSNVEHTTTTWNIIGSSVMFAPMAITGQPLFQIPEPIPANLDQWDGYSRERDRLLAVLADFATPTLFLSGDIH
- soluble on expression in E. coli: not soluble

Sequence: GPGSMEYNARYQVSPRDQFLRKVVVVPYGVLGMQMTLQGGLVRAGSEPDESTFIVDPANLRHIFTTAVGATGASGAIYNMLGLRGPFPDEVVQAISRVCDTKFYKYGERANVIHVVDPDFREGAWSEREAAVELSRAYRNVFHEFVRGDGDVLRVPPLSSGVLSGSLYNQLPIITQSAVAMAFEQLHTFDREYLLRRDKQVELCVFMNREWDMYQNVFKNCTQPSKL
- soluble on expression in E. coli: soluble

Sequence: MGSDKIHHHHHHVRALVVSVDNTARREGDTGRRVGMQPPEPPFPHNEKESTAVNFKEMQATLMHELRLYHYPVAVKFFFDQAEVDKFKAETEYYTPLKAMTFCQWQIAARMKGQTVYSEREGLGCSNAVFSFGWKDLDEAEVKSHAKYCKDLDQAKRFVETKSRLPEGLIGIAVAPLADATFMPDTVHFYCDNMQAYHLAVDYMAATDTHPLRPQITMNSSACGGNVYTMVEKQFNMLPACSGSYNAGKTERGEINVIIPGEQMQMVYERLLERMEKLGSSSITKPGDGFPGADVCKNCPLIVFKKAKD
- soluble on expression in E. coli: not soluble

Sequence: MKERIVGQSGELFCFGQMPVWKVENLPEVLLSGYSSEEGEWVCLNVLQGDVEVRAPDGAAEVWSAESGDCVFAPQQVFSVKPKTDDAEIRLSLYCAAADYFHKKYGMSATHSAVAAAQDTVPAGRALDMGCGQGRNALFLGLKGFDVTAADCNPAALANVAELAEAEGLNVRTLEYDLNAAALQGEFDYIVATVVLMFLMPQRVPDVIADMQAHTAAGGYNLIVSAMDTADFPCPMPFPFKFKEGELKDYYRDWELVEYKEELGAMHAKDENGNPIRFKFVTMLAKKPGLEHHHHHH
- soluble on expression in E. coli: soluble

Sequence: MSLAQFYSAKRRTTTRQIITVSVNDLDSFGQGVARHNGKTLFIPGLLPQENAEVTVTEDKKQYARAKVVRRLSDSPERETPRCPHFGVCGGCQQQHASVDLQQRSKSAALARLMKHDVSEVIADVPWGYRRRARLSLNYLPKTQQLQMGFRKAGSSDIVDVKQCPILAPQLEALLPKVRACLGSLQAMRHLGHVELVQATSGTLMILRHTAPLSSADREKLERFSHSEGLDLYLAPDSEILETVSGEMPWYDSNGLRLTFSPRDFIQVNAGVNQKMVARALEWLDVQPEDRVLDLFCGMGNFTLPLATQAASVVGVEGVPALVEKGQQNARLNGLQNVTFYHENLEEDVTKQPWAKNGFDKVLLDPARAGAAGVMQQIIKLEPIRIVYVSCNPATLARDSEALLKAGYTIARLAMLDMFPHTGHLESMVLFSRVKEGHHHHHH
- soluble on expression in E. coli: soluble

Sequence: SKARTVAGPVGGSLSVQCPYEKEHRTLNKYWCRPPQIFLCDKIVETKGSAGKRNGRVSIRDSPANLSFTVTLENLTEEDAGTYWCGVDTPWLQDFHDPVVEVEVSVFPAS
- soluble on expression in E. coli: soluble

Sequence: EEATSKGQNLNVEKINGEWFSILLASDKREKIEEHGSMRVFVEHIHVLENSLAFKFHTVIDGECSEIFLVADKTEKAGEYSVMYDGFNTFTILKTDYDNYIMFHLINEKDGKTFQLMELYGRKADLNSDIKEKFVKLCEEHGIIKENIIDLTKTNRCLKARE
- soluble on expression in E. coli: soluble

Sequence: DSNLLLKLGMLTGRIVPDNQAVYAKDFKPESILGASNLSFRGNVNISEGQSADVVFLNADNGILVQDLPFEVKLKKFHIDFYNTGMPRDFASDIEVTDKATGEKLERTIRVNHPLTLHGITIYQASFADGGSDLTFKAWNLGDASREPVVLKATSIHQFPLEIGKHKYRLEFDQFTSMNVEDMSEGAEREKSLKSTLNDVRAVTQEGKKYTNIGPSIVYRIRDAAGQAVEYKNYMLPVLQEQDYFWITGTRSGLQQQYRWLRIPLDKQLKADTFMALREFLKDGEGRKRLVADATKGAPAEIREQFMLAAENTLNIFAQKGYLGLDEFITSNIPKEQQDKMQGYFYEMLYGVMNAALDETIRRYGLPEWQQDEARNRFLLHSMDAYTGLTEYPAPMLLQLDGFSEVRSSGLQMTRSP
- soluble on expression in E. coli: not soluble

Sequence: MTRLAEILDQMSAVLNDLKTVMDQEQQHLSMGQINGSQLQWITEQKSSLLATLDYLEQLRRKEPNTANSVDISQRWQEITVKTQQLRQMNQHNGWLLEGQIERNQQALEMLKPHQEPTLYGANGQTSTTHRGGKKISILEHHHHHH
- soluble on expression in E. coli: soluble

Sequence: MFSYTDTILSIMQRIEVYNEIFKAISKEVQEYGCNQAAHRRGRDTYMFCRNNVNRFFTEEMMFRKNLEPYYDKEATKILLEGLDTYKEGVFFWLEALSESCQVTDELKYQLGIRQKESSYLLINQACKEACEGIQSAHSVHKM
- soluble on expression in E. coli: not soluble

Sequence: DIHQEMDREELELEEVDLYRMNSQDKLGLTVCYRTDDEDDIGIYISEIDPNSIAAKDGRIREGDRIIQINGIEVQNREEAVALLTSEENKNFSLLIARPELQLDEGWMDDD
- soluble on expression in E. coli: soluble

Reference: the DeepSol protein solubility set
